{"source": "patent US10138493", "experiment_in_all_cases": "cell_activity", "key": {"synTF ZF 5-7": {"tested_on": "synTF ZF 5-7", "details": "1x reporter, HEK293FT; KRAB and HP1 fusions also repress"}, "synTF ZF 8-1": {"tested_on": "synTF ZF 8-1", "details": "1x reporter, HEK293FT; KRAB and HP1 fusions also repress"}, "synTF ZF 2-6": {"tested_on": "synTF ZF 2-6", "details": "1x reporter, HEK293FT; KRAB and HP1 fusions also repress"}, "synTF ZF 4-8": {"tested_on": "synTF ZF 4-8", "details": "1x reporter, HEK293FT; KRAB and HP1 fusions also repress"}, "synTF ZF 7-3": {"tested_on": "synTF ZF 7-3", "details": "1x reporter, HEK293FT; KRAB and HP1 fusions also repress"}, "synTF ZF 1-3": {"tested_on": "synTF ZF 1-3", "details": "1x reporter, HEK293FT; KRAB and HP1 fusions also repress (p284, p286)"}, "synTF ZF 3-5": {"tested_on": "synTF ZF 3-5", "details": "1x reporter, HEK293FT; KRAB and HP1 fusions also repress"}, "synTF ZF 9-2": {"tested_on": "synTF ZF 9-2", "details": "1x reporter, HEK293FT; KRAB and HP1 fusions also repress"}, "synTF ZF 6-4": {"tested_on": "synTF ZF 6-4", "details": "1x reporter, HEK293FT; KRAB and HP1 fusions also repress"}}}
{"sequence": "TGAAGCAGTCGACGCCGAAG (double strand) [Target 5]", "values": [{"measurement": "activity (fold GFP activation)", "setting": "synTF ZF 5-7", "result": "> 10"}]}
{"sequence": "AGACGCAGTATAGGTCGAAC (double strand) [Target 8]", "values": [{"measurement": "activity (fold GFP activation)", "setting": "synTF ZF 8-1", "result": "> 10"}]}
{"sequence": "GGACGACGTTACGGACGTAC (double strand) [Target 2]", "values": [{"measurement": "activity (fold GFP activation)", "setting": "synTF ZF 2-6", "result": "> 10"}]}
{"sequence": "GGACGACGCCGATGTAGAAG (double strand) [Target 4]", "values": [{"measurement": "activity (fold GFP activation)", "setting": "synTF ZF 4-8", "result": "> 10"}]}
{"sequence": "CGACGAGGTCGCATAAGTAG (double strand) [Target 7]", "values": [{"measurement": "activity (fold GFP activation)", "setting": "synTF ZF 7-3", "result": "> 10"}]}
{"sequence": "CGTCGAAGTCGAAGTCGACC (double strand) [Target 1]", "values": [{"measurement": "activity (fold GFP activation)", "setting": "synTF ZF 1-3", "result": "> 10"}]}
{"sequence": "AGACGTCGAAGTAGCCGTAG (double strand) [Target 3]", "values": [{"measurement": "activity (fold GFP activation)", "setting": "synTF ZF 3-5", "result": "> 10"}]}
{"sequence": "AGACGCAGTATAGGACGACG (double strand) [Target 9]", "values": [{"measurement": "activity (fold GFP activation)", "setting": "synTF ZF 9-2", "result": "> 10"}]}
{"sequence": "GGACGACGCGGTCTAAGAAG (double strand) [Target 6]", "values": [{"measurement": "activity (fold GFP activation)", "setting": "synTF ZF 6-4", "result": "> 10"}]}
